Data published in US20120058906A1 (published 2012).
Numbering of substitutions follows the chain as printed.

Assays:
[1] = target: T1, rHuman P-Cadherin/Fc Chimera, CF (R&D Systems Cat#861-PC) (human, UniProt P22223 108-654); assay: ECL (MSD Multi-Spot) binding, antigen spotted on plate; Fab 10 nM
T1 construct: Bought Fc chimera; Fc part of the bought chimera not given

[2] = target: T2, rHuman IGF-1 sR, CF (R&D Systems Cat#391-GR) (human, UniProt P08069 31-932); assay: as above
T2 construct: Bought soluble receptor; also called insulin-like growth factor-1 soluble receptor; IGF-R1

[3] = target: T3, rHuman ErbB2/Fc Chimera, CF (R&D Systems Cat#1129-ER) (human, UniProt P04626 23-652); assay: as above
T3 construct: Bought Fc chimera; also called human epidermal growth factor 2 receptor; HER2/neu; Fc part of the bought chimera not given

[4] = target: T4, rHuman CD44/Fc Chimera, CF (R&D Systems Cat#3660-CD) (human, UniProt P16070 21-220); assay: as above
T4 construct: Bought Fc chimera; Fc part of the bought chimera not given

[5] = target: T5, Recombinant Human DLL4 (R&D Systems Cat#1506-D4/CF) (human, UniProt Q9NR61 27-524); assay: as above
T5 construct: Bought recombinant protein; also called delta-like protein 4

[6] = target: T6, rHuman EGF R/Fc Chimera, CF (R&D Systems Cat#344-ER) (human, UniProt P00533 25-645); assay: as above
T6 construct: Bought Fc chimera; also called epidermal growth factor receptor; Fc part of the bought chimera not given

[7] = target: T7, rHuman Erythropoietin R/Fc Chimera, CF (R&D Systems Cat#963-ER) (human, UniProt P19235 25-250); assay: as above
T7 construct: Bought Fc chimera; also called EPO R/Fc; erythropoietin receptor; Fc part of the bought chimera not given
T7 sequence: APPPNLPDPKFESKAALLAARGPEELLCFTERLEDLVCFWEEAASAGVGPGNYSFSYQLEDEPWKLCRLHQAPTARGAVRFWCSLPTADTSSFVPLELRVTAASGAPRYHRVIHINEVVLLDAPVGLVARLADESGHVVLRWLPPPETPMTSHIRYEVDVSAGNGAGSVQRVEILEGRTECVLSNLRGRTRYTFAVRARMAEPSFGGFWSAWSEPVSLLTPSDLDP

[8] = target: T8, rHuman Notch-1/Fc Chimera, CF (R&D Systems Cat#3647-TK) (human, UniProt P46531 19-526); assay: as above
T8 construct: Bought Fc chimera; Fc part of the bought chimera not given

[9] = target: T9, rHuman HGF R/c-MET/Fc Chimera, CF (R&D Systems Cat#358-MT/CF) (human, UniProt P08581 25-932); assay: as above
T9 construct: Bought Fc chimera; also called HGF R/Fc; hepatocyte growth factor receptor; Fc part of the bought chimera not given

[10] = target: T1, rHuman P-Cadherin/Fc Chimera, CF (R&D …); assay: ECL (MSD Multi-Spot) binding, antigen spotted on plate; Fab 1000 nM
[11] = target: T2, rHuman IGF-1 sR, CF (R&D Systems …); assay: as above
[12] = target: T3, rHuman ErbB2/Fc Chimera, CF (R&D …); assay: as above
[13] = target: T4, rHuman CD44/Fc Chimera, CF (R&D Systems …); assay: as above
[14] = target: T5, Recombinant Human DLL4 (R&D Systems …); assay: as above
[15] = target: T6, rHuman EGF R/Fc Chimera, CF (R&D …); assay: as above
[16] = target: T7, rHuman Erythropoietin R/Fc Chimera, CF …; assay: as above
[17] = target: T8, rHuman Notch-1/Fc Chimera, CF (R&D …); assay: as above
[18] = target: T9, rHuman HGF R/c-MET/Fc Chimera, CF (R&D …); assay: as above
[19] = target: T1, rHuman P-Cadherin/Fc Chimera, CF (R&D …); assay: ECL (MSD Multi-Spot) binding, antigen spotted on plate; Fab 10 nM; remark: listed apart in the source
[20] = target: T2, rHuman IGF-1 sR, CF (R&D Systems …); assay: as above; remark: listed apart in the source
[21] = target: T3, rHuman ErbB2/Fc Chimera, CF (R&D …); assay: as above; remark: listed apart in the source
[22] = target: T4, rHuman CD44/Fc Chimera, CF (R&D Systems …); assay: as above; remark: listed apart in the source
[23] = target: T5, Recombinant Human DLL4 (R&D Systems …); assay: as above; remark: listed apart in the source
[24] = target: T6, rHuman EGF R/Fc Chimera, CF (R&D …); assay: as above; remark: listed apart in the source
[25] = target: T7, rHuman Erythropoietin R/Fc Chimera, CF …; assay: as above; remark: listed apart in the source
[26] = target: T8, rHuman Notch-1/Fc Chimera, CF (R&D …); assay: as above; remark: listed apart in the source
[27] = target: T9, rHuman HGF R/c-MET/Fc Chimera, CF (R&D …); assay: as above; remark: listed apart in the source
[28] = target: T1, rHuman P-Cadherin/Fc Chimera, CF (R&D …); assay: ECL (MSD Multi-Spot) binding, antigen spotted on plate; Fab 1000 nM; remark: listed apart in the source
[29] = target: T2, rHuman IGF-1 sR, CF (R&D Systems …); assay: as above; remark: listed apart in the source
[30] = target: T3, rHuman ErbB2/Fc Chimera, CF (R&D …); assay: as above; remark: listed apart in the source
[31] = target: T4, rHuman CD44/Fc Chimera, CF (R&D Systems …); assay: as above; remark: listed apart in the source
[32] = target: T5, Recombinant Human DLL4 (R&D Systems …); assay: as above; remark: listed apart in the source
[33] = target: T6, rHuman EGF R/Fc Chimera, CF (R&D …); assay: as above; remark: listed apart in the source
[34] = target: T7, rHuman Erythropoietin R/Fc Chimera, CF …; assay: as above; remark: listed apart in the source
[35] = target: T8, rHuman Notch-1/Fc Chimera, CF (R&D …); assay: as above; remark: listed apart in the source
[36] = target: T9, rHuman HGF R/c-MET/Fc Chimera, CF (R&D …); assay: as above; remark: listed apart in the source
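Also: blank spot per well as comparator with Hit at signal to blank ratio of 4 or more.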

B1: Fab VH1-46_IGHD6-6*01_IGHJ1*01_S102A_S103P_S104F & L6_IGKJ1*01 (Fab, V domains shown)
VH: QVQLVQSGAEVKKPGASVKVSCKASGYTFTSYYMHWVRQAPGQGLEWMGIINPSGGSTSYAQKFQGRVTMTRDTSTSTVYMELSSLRSEDTAVYYCAREEYAPFSAEYFQHWGQGTLVTVSS
VL: not shown
notes: Fab made in E. coli; The heavy chain also carries the CH1 with Flag and His tags of Plasmid A, and the light chain the kappa constant region of Plasmid C
[1]
  ECL signal: 894
[2]
  ECL signal: 720
[3]
  ECL signal: 842
[4]
  ECL signal: 887
[5]
  ECL signal: 345000
[6]
  ECL signal: 809
[7]
  ECL signal: 1110
[8]
  ECL signal: 1140
[9]
  ECL signal: 691
[10]
  ECL signal: 2500
[11]
  ECL signal: 1180
[12]
  ECL signal: 1290
[13]
  ECL signal: 1310
[14]
  ECL signal: 73300
[15]
  ECL signal: 2430
[16]
  ECL signal: 1660
[17]
  ECL signal: 1620
[18]
  ECL signal: 1580

B2: Fab VH1-46_IGHD6-6*01_IGHJ1*01_S102A & L6_IGKJ1*01 (Fab, V domains shown)
VH: B1 VH with P103S, F104S
VL: not shown
notes: as for B1
[19]
  ECL signal: 691
[20]
  ECL signal: 657
[21]
  ECL signal: 670
[22]
  ECL signal: 681
[23]
  ECL signal: 38700
[24]
  ECL signal: 677
[25]
  ECL signal: 761
[26]
  ECL signal: 647
[27]
  ECL signal: 698
[28]
  ECL signal: 1500
[29]
  ECL signal: 1170
[30]
  ECL signal: 946
[31]
  ECL signal: 1090
[32]
  ECL signal: 22200
[33]
  ECL signal: 1600
[34]
  ECL signal: 1320
[35]
  ECL signal: 1250
[36]
  ECL signal: 1660
